Test results from patent US20250059284A1 (AGENX, published 2025).
Numbering of substitutions follows the chain as printed.

T1: recombinant galectin-10 crystals (Charcot-Leyden crystals) (UniProt Q05315 2-142, limits assumed)
T1 sequence (looked up): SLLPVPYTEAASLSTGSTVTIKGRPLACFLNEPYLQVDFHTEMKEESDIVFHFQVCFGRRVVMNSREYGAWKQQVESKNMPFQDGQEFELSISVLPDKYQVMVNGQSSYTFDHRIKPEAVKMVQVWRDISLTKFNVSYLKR

T2: human Gal10-His (human, UniProt Q05315 2-142, limits assumed)
T2 construct: also called human galectin-10; not shown: His tag
T2 sequence: T1 sequence (looked up)

T3: galectin-10 (Gal10), species and tag not stated for the assay (UniProt Q05315 2-142, limits assumed)
T3 construct: human is likely, since the human-specific 1D11 is in the panel
T3 sequence (looked up): T1 sequence (looked up)

B1: g24F02_N53A human Fab (Fab, V domains shown)
VH: EVQLLESGGGLVQPGGSLRLSCAASGFTFSSYAMSWVRQAPGKGLEWVSAINAGGGSTSYADSVKGRFTISRDNSKNTLYLQMNSLRAEDTAVYYCAKGLRVGVLGFDYWGQGTLVTVSS
VL: SYELTQPLSVSVALGQTARITCDGNNIGSKSAQWYQQKPGQAPVLVIYADEYRPEGIPERFSGSNSGNTATLTISRAQAGDEADYYCQVWDGSAAVFGGGTQLTVL
notes: Human Fab backbone
B2: g20H09 human Fab (Fab, V domains shown)
VH: EVQLLESGGGLVQPGGSLRLSCAASGFTFRSYDMSWVRQAPGKGLEWVSAIKWHRITYYADSVKGRFTISRDNSKNTLYLQMNSLRAEDTAVYYCATTHGIGTLGFGSWGQGTLVTVSS
VL: B1 VL
notes: Germlined clone in human Fab backbone; also called clone 20H09
B3: g23H09 human Fab (Fab, V domains shown)
VH: EVQLLESGGGLVQPGGSLRLSCAASGFTFRSYDMSWVRQAPGKGLEWVSAIAQFQHWTYYADSVKGRFTISRDNSKNTLYLQMNSLRAEDTAVYYCATTHGIGTLGFGSWGQGTLVTVSS
VL: B1 VL
notes: Germlined clone in human Fab backbone; also called clone 23H09
B4: g24F02 human Fab (Fab, V domains shown)
VH: B1 VH with A53N
VL: B1 VL
notes: Germlined clone in human Fab backbone

Key:
[1] = biological target: T4, cynomolgus Gal10-His (WGS isoform) (cynomolgus); assay: SPR Biacore 3000; cynomolgus Gal10-His (WGS isoform) captured on anti-His CM5 chip; Fab at 30 nM
T4 construct: also called cyno Gal10; cynomolgus antigen
Method: (§1) The binding properties of the selected Fab clones to human and cynomolgus Gal10 was analyzed via a capture method established on Biacore 3000. For this purpose, two approaches were used. In the first one, two concentrations of the selected Fab clone were applied on cynomolgus (WGS isoform) Gal10-His capture on a CM5 chip coated with a monoclonal anti-His. In the second approach, a serial dilution was applied on human or cynomolgus (WGS isoform) Gal10 His on the same set up.

[2] = biological target: T1, recombinant galectin-10 crystals …; assay: cell-based or functional assay
human Gal10-His [3] = biological target: T2, human Gal10-His; assay: SPR Biacore 3000; human Gal10-His captured on anti-His CM5 chip
Method: The binding properties of the selected Fab clones to human Gal10 were analyzed via a capture method established on Biacore 3000. It was decided to apply two concentrations of the selected Fab clones on human Gal10-His immobilized on a CM5 chip coated with a monoclonal anti-His.

[4] = biological target: T3, galectin-10 (Gal10), species and tag …; assay: SPR (Biacore 3000), binding activity of the sample stored 4 weeks at +5 C and nebulized, relative to reference sample T0; criterion <20% loss
Method: The functional active concentration of the nebulized solutions was assessed by SPR on a Biacore 3000 instrument. All samples were evaluated with methods meeting the standard qualification criteria. Aliquots were tested at predefined test concentrations against titration curves from reference samples (TO) and in the presence of quality control (QC) samples.

human Gal10-His [5] = biological target: T2, human Gal10-His; assay: SPR Biacore 3000; human Gal10-His captured on anti-His CM5 chip; Fab at 30 nM
Method: as §1

| Binder | Amplitude R0 (RU) 30 nM [1] | EC50, Gal10 crystal dissolution, stressed material (T4W post-nebulization, after 2 hour incubation), assay 2 [2] | EC50, Gal10 crystal dissolution, unstressed material (T0, after 2 hour incubation), assay 2 [2] | relative activity in recombinant Gal10 crystal dissolution, T4W post-nebulization sample relative to unstressed material T0 (at 2 hour incubation) [2] | fold better off rate than g7B07 (human Gal10-His [3]) | relative activity by SPR for T4W post-nebulization sample relative to reference sample T0 [4] | Amplitude R0 (RU) 30 nM (human Gal10-His [5]) | EC50, Gal10 crystal dissolution, stressed material (T4W post-nebulization, after 2 hour incubation), assay 1 [2] | EC50, Gal10 crystal dissolution, unstressed material (T0, after 2 hour incubation), assay 1 [2] | relative activity in recombinant Gal10 crystal dissolution, T4W post-nebulization sample relative to unstressed material T0 (at 2 hour incubation), assay 1 [2] | relative activity in recombinant Gal10 crystal dissolution, T4W post-nebulization sample relative to unstressed material T0 (at 2 hour incubation), assay 2 [2] |
| --- | --- | --- | --- | --- | --- | --- | --- | --- | --- | --- | --- |
| B1 | 544 RU | 159 µg/mL | 191 µg/mL | 120% | 3.5 fold | 111% | 647 RU | – | – | – | – |
| B2 | – | – | – | 66% | – | 97% | – | 395 µg/mL | 260 µg/mL | – | – |
| B3 | 589 RU | 209 µg/mL | 190 µg/mL | – | 1.9 fold | 119% | 722 RU | 297 µg/mL | 252 µg/mL | 85% | 91% |
| B4 | 566 RU | – | – | – | – | – | 644 RU | – | – | – | – |
